Assay results taken from doi:10.1101/2025.02.06.636808, “DNA Binding by the Escherichia coli MinC–MinD Complex Requires the MinC Interdomain Linker” (bioRxiv, 2025).

T1: MinD (E. coli) (E. coli, UniProt P0AEZ3 1-270)
T1 construct: source: E. coli Rosetta(DE3)pLysS, purified (nickel IMAC, desalting); His tag removed with thrombin; not shown: T7 tag, N-terminal, kept
T1 sequence (looked up): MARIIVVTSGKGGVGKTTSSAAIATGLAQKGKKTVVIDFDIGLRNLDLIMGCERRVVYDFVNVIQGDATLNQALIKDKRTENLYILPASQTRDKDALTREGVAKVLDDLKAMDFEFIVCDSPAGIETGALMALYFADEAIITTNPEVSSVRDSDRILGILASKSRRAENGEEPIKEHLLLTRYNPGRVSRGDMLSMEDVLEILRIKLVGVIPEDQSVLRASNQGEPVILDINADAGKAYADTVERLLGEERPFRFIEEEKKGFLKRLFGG

B1: MinC-3xAGGSG linker mutant (natural protein, E. coli)
chain: MSNTPIELKGSSFTLSVVHLHEAEPKVIHQALEDKIAQAPAFLKHAPVVLNVSALEDPVNWSAMHKAVSATGLRVIGVSGCKDAQLKAEIEKMGLPILTEGAGGSGAGGSGAGGSGPVTKTRLIDTPVRSGQRIYAPQCDLIVTSHVSAGAELIADGNIHVYGMMRGRALAGASGDRETQIFCTNLMAELVSIAGEYWLSDQIPAEFYGKAARLQLVENALTVQPLN
notes: MinC, E. coli MG1655, N-terminal part before the linker, residues 1-101; linker that replaces residues 102-120 of MinC: AGGSG repeated three times; MinC, E. coli MG1655, C-terminal part after the linker, residues 121-231; source: E. coli Rosetta(DE3)pLysS, purified (nickel IMAC, desalting); His tag removed with thrombin; not shown: T7 tag, N-terminal, kept
B2: MinC-1xAGGSG linker mutant (natural protein, E. coli)
chain: MSNTPIELKGSSFTLSVVHLHEAEPKVIHQALEDKIAQAPAFLKHAPVVLNVSALEDPVNWSAMHKAVSATGLRVIGVSGCKDAQLKAEIEKMGLPILTEGAGGSGPVTKTRLIDTPVRSGQRIYAPQCDLIVTSHVSAGAELIADGNIHVYGMMRGRALAGASGDRETQIFCTNLMAELVSIAGEYWLSDQIPAEFYGKAARLQLVENALTVQPLN
notes: MinC, E. coli MG1655, N-terminal part before the linker, residues 1-101; linker that replaces residues 102-120 of MinC; MinC, E. coli MG1655, C-terminal part after the linker, residues 121-231; source: E. coli Rosetta(DE3)pLysS, purified (nickel IMAC, desalting); His tag removed with thrombin; not shown: T7 tag, N-terminal, kept
B3: MinC-2xAGGSG linker mutant (natural protein, E. coli)
chain: MSNTPIELKGSSFTLSVVHLHEAEPKVIHQALEDKIAQAPAFLKHAPVVLNVSALEDPVNWSAMHKAVSATGLRVIGVSGCKDAQLKAEIEKMGLPILTEGAGGSGAGGSGPVTKTRLIDTPVRSGQRIYAPQCDLIVTSHVSAGAELIADGNIHVYGMMRGRALAGASGDRETQIFCTNLMAELVSIAGEYWLSDQIPAEFYGKAARLQLVENALTVQPLN
notes: MinC, E. coli MG1655, N-terminal part before the linker, residues 1-101; linker that replaces residues 102-120 of MinC: AGGSG repeated twice; MinC, E. coli MG1655, C-terminal part after the linker, residues 121-231; source: E. coli Rosetta(DE3)pLysS, purified (nickel IMAC, desalting); His tag removed with thrombin; not shown: T7 tag, N-terminal, kept
B4: MinC-4xAGGSG linker mutant (natural protein, E. coli)
chain: MSNTPIELKGSSFTLSVVHLHEAEPKVIHQALEDKIAQAPAFLKHAPVVLNVSALEDPVNWSAMHKAVSATGLRVIGVSGCKDAQLKAEIEKMGLPILTEGAGGSGAGGSGAGGSGAGGSGPVTKTRLIDTPVRSGQRIYAPQCDLIVTSHVSAGAELIADGNIHVYGMMRGRALAGASGDRETQIFCTNLMAELVSIAGEYWLSDQIPAEFYGKAARLQLVENALTVQPLN
notes: MinC, E. coli MG1655, N-terminal part before the linker, residues 1-101; linker that replaces residues 102-120 of MinC: AGGSG repeated four times; MinC, E. coli MG1655, C-terminal part after the linker, residues 121-231; source: E. coli Rosetta(DE3)pLysS, purified (nickel IMAC, desalting); His tag removed with thrombin; not shown: T7 tag, N-terminal, kept
B5: MinE (E. coli) (natural protein, UniProt P0A734 1-88, looked up)
chain: MALLDFFLSRKKNTANIAKERLQIIVAERRRSDAEPHYLPQLRKDILEVICKYVQIDPEMVTVQLEQKDGDISILELNVTLPEAEELK
notes: a T7 tag from pET28a may be left; source: E. coli Rosetta(DE3)pLysS, purified (nickel IMAC, desalting)
B6: MinC19RL linker mutant (natural protein, E. coli)
chain: MSNTPIELKGSSFTLSVVHLHEAEPKVIHQALEDKIAQAPAFLKHAPVVLNVSALEDPVNWSAMHKAVSATGLRVIGVSGCKDAQLKAEIEKMGLPILTEGAGGSGAGGSGAGGSGAGGSPVTKTRLIDTPVRSGQRIYAPQCDLIVTSHVSAGAELIADGNIHVYGMMRGRALAGASGDRETQIFCTNLMAELVSIAGEYWLSDQIPAEFYGKAARLQLVENALTVQPLN
notes: MinC, E. coli MG1655, N-terminal part before the linker, residues 1-101; linker that replaces residues 102-120 of MinC: as the 4x linker but without the last glycine, 19 residues; MinC, E. coli MG1655, C-terminal part after the linker, residues 121-231; source: E. coli Rosetta(DE3)pLysS, purified (nickel IMAC, desalting); His tag removed with thrombin; not shown: T7 tag, N-terminal, kept
B7: MinC-GS linker mutant (natural protein, E. coli)
chain: MSNTPIELKGSSFTLSVVHLHEAEPKVIHQALEDKIAQAPAFLKHAPVVLNVSALEDPVNWSAMHKAVSATGLRVIGVSGCKDAQLKAEIEKMGLPILTEGGSPVTKTRLIDTPVRSGQRIYAPQCDLIVTSHVSAGAELIADGNIHVYGMMRGRALAGASGDRETQIFCTNLMAELVSIAGEYWLSDQIPAEFYGKAARLQLVENALTVQPLN
notes: MinC, E. coli MG1655, N-terminal part before the linker, residues 1-101; linker that replaces residues 102-120 of MinC; MinC, E. coli MG1655, C-terminal part after the linker, residues 121-231; Made from pET28a-MinC by amplifying the whole plasmid except residues 102-120; source: E. coli Rosetta(DE3)pLysS, purified (nickel IMAC, desalting); His tag removed with thrombin; not shown: T7 tag, …

Biological target: T1, MinD (E. coli)
Assay: co-sedimentation; liposome co-sedimentation without DNA, competition: MinD 1 uM, MinC 1 uM, increasing MinE, 160 ug/mL liposomes, 1 mM ATP, ATPase buffer; SDS-PAGE, Coomassie
Conditions: both partners purified

Row | binding result | Binder
1 | binds | B1
2 | binds | B2
3 | binds | B3
4 | binds | B4
5 | binds | B5

Biological target: T1, MinD (E. coli)
Assay: co-sedimentation; liposome co-sedimentation without DNA: MinD 2 uM, MinC 2 uM, 0.5 mg/mL liposomes, 1 mM ATP, ATPase buffer (25 mM Tris-HCl pH 7.5, 50 mM KCl, 5 mM MgCl2, 5% glycerol); SDS-PAGE, Coomassie
Conditions: both partners purified

Row | binding result | Binder
6 | binds | B6
7 | binds | B7
